# B1: coproheme decarboxylase from Corynebacterium diphtheriae (CdChdC), wild-type (enzyme)
# chain: MAEKLNFEELNSMQRYSQFAVFRAIPGALGSDRAEIVAQAQSFFDGLETAGKVEVRGIYDLAGCRAEADFMIWWIAEEFEEIQAAFARFRRETVLGQVSEVAWLGNSLHRPAEFNRSHLPSFIMGEIPGDWITVYPFVRSYDWYIMDPQKRRKILAEHGQAARDFPDVRANTVPAFALGDYEWMLAFEAPRLDRIVDLMHKMRYTEARLHVREETPFFTGRRVSEVSELVNVLP
# What was measured:
# Experiment in all cases: SEC-MALS
# [1] = target: CdChdC variant H118A (Corynebacterium diphtheriae) (UniProt Q6NGV6)
# [2] = target: CdChdC variant H118A/Y135A (Corynebacterium diphtheriae) (UniProt Q6NGV6)
# [3] = target: CdChdC variant Y135A (Corynebacterium diphtheriae) (UniProt Q6NGV6)
# SEC-MALS = target: the molecule itself
molecule,measurement,setting,value
CdChdC variant H118A (from UniProt Q6NGV6 1-234) (enzyme),stoichiometry N,[1],5
CdChdC variant H118A/Y135A (from UniProt Q6NGV6 1-234) (enzyme),stoichiometry N,[2],5
CdChdC variant Y135A (from UniProt Q6NGV6 1-234) (enzyme),stoichiometry N,[3],5
B1,stoichiometry N,SEC-MALS,5

# Source: paper PMC7235987 (ACS Catalysis, 2020)
